Measurements taken from the DeepSol protein solubility set.

assay: soluble on expression in E. coli; label from the status in PepcDB or PDB records

| Sequence | soluble on expression in E. coli |
| --- | --- |
| MGSDKIHHHHHHMSRIVNVKLSLKRYEYEKPFHITGSVSSESRNVEVEIVLESGVKGYGEASPSFRVNGERVEALLAIENAVREMITGIDVRNYARIFEITDRLFGFPSLKAAVQFATLDALSQELGTQVCYLLGGKRDEIETDKTVGIDTVENRVKEAKKIFEEGFRVIKIKVGENLKEDIEAVEEIAKVTRGAKYIVDANMGYTQKEAVEFARAVYQKGIDIAVYEQPVRREDIEGLKFVRFHSPFPVAADESARTKFDVMRLVKEEAVDYVNIKLMKSGISDALAIVEIAESSGLKLMIGCMGESSLGINQSVHFALGTGAFEFHDLDSHLMLKEEVFRGKFIQDGPRMRVKDQ | not soluble |
| MPSERRPFQTAFLSNRKTVGKLAERVQSRYDGLHKFKHICSAAMALIKEPLDKVKQRNEELEAAEEAAAQEALGREQEAARVSEWEERYKLSRSEFEQFWKGLPQTVQNKLQASQKTWKSGMDKICANNAKAEGKTPNGIKFSELACKTAKTEARLEELHNRKKALIDEMAREADKKELSKRL | not soluble |
| MASDGVVVEIGKVTGSVGTTVEIPVYFRGVPSKGIANCDFVFRYDPNVLEIIGIDPGDIIVDPNPTKSFDTAIYPDRKIIVFLFAEDSGTGAYAITKDGVFAKIRATVKSSAPGYITFDEVGGFADNDLVEQKVSFIDGGVNVGNATPTKGATPTNTATPTK | soluble |
| MAHHHHHHVDDDDKMAGDSAAYQRTSLYGDDVVIVAAHRTPLCKSKRGNFKDTYPDDLLAPVLRALIEKTNLNPSEVGDIVVGTVLAPGSQRASECRMAAFYAGFPETVAVRTVNRQCSSGLQAVADVAAAIKAGFYDIGIGAGLESMTTNPMAWEGSVNPAVKKFAQAQNCLLPMGVTSENVAQRFGVSRQEQDQAAVDSHRKAAAATAAGKFKDEIIPVKTKLVDPKTGDEKPITVSVDDGIRPTTTLASLGKLKPVFKKDGTTTAGNSSQVSDGAGAVLLMKRSVAMQKGLPVLGVFRTFAAVGVDPAIMGIGPAVAIPAAVKAAGLELDDIDLFEINEAFASQFVYCRNKLGLDPEKINVNGGAMAIGHPLGATGARCVATLLHEMKRRGKDCRFGVVSMCIGTGMGAAAVFERGDGVDELRNARKVEAQGLLSKDAR | soluble |
| SGPLDEYAYSWANHLLANPVNCATLEITLGPAEFLLRSDAQLAIAGGDLNATLDGRPIANWSRFYAKQGQTLRFGLPRNGLRAYLAVQGGFTVSPQLGSVSTHVRQGLGGLTSQGLALQTGDDLVFSAQQIAQKPVQMTFRFRPDYNLPLRLRVIESYQYQAFSPSAMESFYRSEFIVTPNSDRMGYRLQGETISPPDQAILSEGIALGAIQVPPNGQPIILLNDRQTIGGYPKLGCVARIDLPRLAQAKPGHSVRFVAGDLAGLQAVWCQWARFFGY | not soluble |
| MASSINNRKPSEIFKAQALLYKNMYAFVDSMSLKWSIEMNIPNIIHNHGKPITLSNLVSILQIPSTKVDNVQRLMRYLAHNGFFEIITNQELENEEEAYALTVASELLVKGTELCLAPMVECVLDPTLSTSFHNLKKWVYEEDLTLFAVNLGCDLWEFLNKNPEYNTLYNDALASDSKMINLAMKDCNLVFEGLESIVDVGGGNGTTGKIICETFPKLTCVVFDRPKVVENLCGSNNLTYVGGDMFISVPKADAVLLKAVLHDWTDKDCIKILKKCKEAVTSDGKRGKVIVIDMVINEKKDENQLTQIKLLMNVTISCVNGKERNEEEWKKLFIEAGFQDYKISPFTGLMSLIEIYP | soluble |
| MQKIDEKLQLMNTIAKIYRGSIKEFNNRLGKLMNLSYLDFSILKATSEEPRSMVYLANRYFVTQSAITAAVDKLEAKGLVRRIRDSKDRRIVIVEITPKGRQVLLEANEVLRNLVNEMLSDVENVEELLEGLNKILSRIGSSKD | soluble |
| MRKKSSSNKEETALHPPPENFETATAELEQIVAGMETGQMSLEDALSAYKRGVELLQYCQNILKNSQQQIKILEADMLKHFSPAEHDAS | not soluble |
| MCLAIPSVVIDIFEEDGEKYALAEYKGVKQKAKLALIEGVEIGDYVLIHTGYALEKMSEDEAKLSLDAWEELFDVLDEMDGVKKENSE | not soluble |
| ATHEVHMLNKGESGAMVFEPAFVRAEPGDVINFVPTDKSHNVEAIKEILPEGVESFKSKINESYTLTVTEPGLYGVKCTPHFGMGMVGLVQVGDAPENLDAAKTAKMPKKARERMDAELAQVN | soluble |
| MGGSHHHHHHMASSVPIPGIKDISKLKFFYGFKYLWNPTVYNKIFDKLDLTKTYKHPEELKVLDLYPGVGIQSAIFYNKYCPRQYSLLEKRSSLYKFLNAKFEGSPLQILKRDPYDWSTYSNLIDEERIFVPEVQSSDHINDKFLTVANVTGEGSEGLIMQWLSCIGNKNWLYRFGKVKMLLWMPSTTARKLLARPGMHSRSKCSVVREAFTDTKLIAISDANELKGFDSQCIEEWDPILFSAAEIWPTKGKPIALVEMDPIDFDFDVDNWDYVTRHLMILKRTPLNTVMDSLGHGGQQYFNSRITDKDLLKKCPIDLTNDEFIYLTKLFMEWPFKPDILMDFVDMYQTEHSG | soluble |
| MSLEKKHSVNVEIENPPGRFFIPEDYVQNPVERLRLYRRLASSLDEEDLEEILEEMKDRFGEPPEEVKLLVDYFRLRVRASKLGIKKIRFDHSMVEIFPSRNSPFLNHPRYDRRSGSVVLYTRKDPVEFLMDMKGIITITTDPNSSSVDKLAAALEHHHHHH | soluble |
| MKAANSGRTAAALECFERVVKLQSTPVNWSYLAFCVARERQQFEHATRLCEEAVRREPRSSVLYLNLGKVYLLSGRKDDAIRTFRQGLLYERNTLIESELRRLGLRKPPVLNFLAREHPVNKYLGIMLKKLKIRLEHHHHHH | not soluble |
| MGSDKIHHHHHHMTKVRVAGFGVSLDGFAAGTAQSLDHPLGVRGEEIFQWFFPTRTFRQMLGKEGGDTGLDDRFAQRAMEGFGAFILGRNMFGPVRGEWPDDQWKGWWGDNPPYHAPTFILTHHARPSIEMLGGTTFHFVTGGIEDALEKARKAAGGKDVKIGGGVKTVKQYVQAGYVDEIHLAFAPVALGQGESLFGGLDLRTLGYQTVEHVPTDRATHIVLAK | not soluble |
| MIETITQSQETAILESFLELVKSPYGNFASIGKLSHVLNDPDTLQKVVAVLSLTPQGKQAFEDRPMLGKIDLEQLHQLPNYTLGYMYADHMIRNQLTPPPVNENVNHPFMFLAAHLGETHDIWHVVTGCDTDKPGEVKLEAFYTAQLIPDRLFLALLAKNLLKTAMYEVELCEQILDGLTQGWMMGKRAKPLFGIEWNKLWETPLEELQTSLNIVPILEHHHHHH | soluble |
| MAASITAITVENLEYPAVVTSPVTGKSYFLGGAGERGLTIEGNFIKFTAIGVYLEDIAVASLAAKWKGKSSEELLETLDFYRDIISGPFEKLIRGSKIRELSGPEYSRKVMENCVAHLKSVGTYGDAEAEAMQKFAEAFKPVNFPPGASVFYRQSPDGILGLSFSPDTSIPEKEAALIENKAVSSAVLETMIGEHAVSPDLKRCLAARLPALLNEGAFKIGN | soluble |
| MSFKGFKVVMLILLSTQSYASKLASSIVCDSTIENPCIVQDSKTQFSPVIRYREVASIADVYGGNITGINKFHLSGSEQPSEKGWEAIAESISRKMGAETKKVIVLDLRQESHGYLNGRAITLVSAYNWINLGKSNSQSTLDQENWLAGLRSRKIVNGVLTVPQYVAKQYSQGKSMVVSTVKNEEYYVYKKGFDYYRIFISDHRAPLDSEVDALVALIKNNPEDTWYHVHCRGGKGRTTTVFAMFDMLKNADKVSFEEIIARQASIPPFYNLMVTNREIPELTPYYEQRLQFLIHFYEFARQSLMGYSGTWSEWKKLNI | not soluble |
| MQVHSGETEILRKAVEDYFCFCYGKALGTTVMVPVPYEKMLRDQSAVVVQGLPEGVAFQHPENYDLATLKWILENKAGISFIINRPFLGPESQLGGPGMVTDAERSIVSPSESCGPINVKTEPMEDSGISLKAEAVSVKKESEDPNYYQYNMQGSHPSSTSNEVIEMELPMEDSTPLVPSEEPNEDPEAEVKIEGNTNSSSVTNSAAGVEDLNIVQVTVPDNEKERLSSIEKIKQLREQVNDLFSRKFGEAIGVDFPVKVPYRKITFNPGCVVIDGMPPGVVFKALGYLEISSMRRILEAAEFIKFTVIRPLPGLELSNVGKRKIDQEGRVFQEKWERAYFFVEVQNIPTCLICKQSMSVSKEYNLRRHYQTNHSKHYDQYTERMRDEKLHELKKGLRKYLLGSSDTECPEQKQVFANPSPTQKSPVQPVEDLAGNLWEKLREKIRSFVAYSIAIDEITDINNTTQLAIFIRGVDENFDVSEELLDTVPMTGTKSGNEIFLRVEKSLKKFCINWSRLVSVASTGTPAMVDANNGLVTKLKSRVATFCKGAELKSICCIIHPESLCAQKLKMDHVMDVVVKSVNWICSRGLNHSEFTTLLYELDSQYGSLLYYTEIKWLSRGLVLKRFFESLEEIDSFMSSRGKPLPQLSSIDWIRDLAFLVDMTMHLNALNISLQGHSQIVTQMYDLIRAFLAKLCLWETHLTRNNLAHFPTLKLVSRNESDGLNYIPKIAELKTEFQKRLSDFKLYESELTLFSSPFSTKIDSVHEELQMEVIDLQCNTVLKTKYDKVGIPEFYKYLWGSYPKYKHHCAKILSMFGSTYICEQLFSIMKLSKTKYCSQLKDSQWDSVLHIAT | soluble |
| MKKTQRKEIENVTNITGVRQIELWRRDDLQHPRLDEVAEEVPVALVYNGISHVVMMASPKDLEYFALGFSLSEGIIESPRDIFGMDVVPSCNGLEVQIELSSRRFMGLKERRRALAGRTGCGVCGVEQLNDIGKPVQPLPFTQTFDLNKLDDALRHLNDFQPVGRLTGCTHAAAWMLPSGELVGGHEDVGRHVALDKLLGRRSQEGESWQQGAVLVSSRASYEMVQKSAMCGVEILFAVSAATTLAVEVAERCNLTLVGFCKPGRATVYTHPQRLSN | not soluble |
| MEFPFDVDALFPERITVLDQHLRPPARRPGTTTPARVDLQQQIMTIIDELGKASAKAQNLSAPITSASRMQSNRHVVYILKDSSARPAGKGAIIGFIKVGYKKLFVLDDREAHNEVEPLCILDFYIHESVQRHGHGRELFQYMLQKERVEPHQLAIDRPSQKLLKFLNKHYNLETTVPQVNNFVIFEGFFAHQHPPARKLPPKRAEGDIKPYSSSDREFLKVAVEPPWPLNRAPRRATPPAHPPPRSSSLGNSPERGPLRPFVPEQELLRSLRLCPPHPTARLLLAADPGGSPAQRRRTR | not soluble |
| MKAYTKYLTFNTKKRRELIRITDEVKKAVEESEVKEGLCLVSSMHLTSSVIIQDDEEGLHEDIWEWLEKLAPYRPDYKHHRTGEDNGDAHLKNLLTHLQVVLPITNGKLDLGPWQEIFYAEFDGQRPKRVVIKIIGE | soluble |
| MSTTDDTHNTLSTGKCPFHQGGHDRSAGAGTASRDWWPNQLRVDLLNQHSNRSNPLGEDFDYRKEFSKLDYSALKGDLKALLTDSQPWWPADWGSYVGLFIRMAWHGAGTYRSIDGRGGAGRGQQRFAPLNSWPDNVSLDKARRLLWPIKQKYGQKISWADLFILAGNVALENSGFRTFGFGAGREDVWEPDLDVNWGDEKAWLTHRHPEALAKAPLGATEMGLIYVNPEGPDHSGEPLSAAAAIRATFGNMGMNDEETVALIAGGHTLGKTHGAAAASHVGADPEAAPIEAQGLGWASSYGSGVGADAITSGLEVVWTQTPTQWSNYFFENLFKYEWVQTRSPAGAIQFEAVDAPDIIPDPFDPSKKRKPTMLVTDLTLRFDPEFEKISRRFLNDPQAFNEAFARAWFKLTHRDMGPKARYIGPEVPKEDLIWQDPLPQPLYQPTQEDIINLKAAIAASGLSISEMVSVAWASASTFRGGDKRGGANGARLALAPQRDWDVNAVAARVLPVLEEIQKTTNKASLADIIVLAGVVGIEQAAAAAGVSISVPFAPGRVDARQDQTDIEMFSLLEPIADGFRNYRARLDVSTTESLLIDKAQQLTLTAPEMTVLVGGMRVLGTNFDGSQNGVFTDRPGVLSTDFFANLLDMRYEWKPTDDANELFEGRDRLTGEVKYTATRADLVFGSNSVLRALAEVYACSDAHEKFVKDFVAAWVKVMNLDRFDLQ | not soluble |
